Assay results: paper PMC6854716, “Redesigning N-glycosylation sites in a GH3 β-xylosidase improves the enzymatic efficiency” (Biotechnology for Biofuels, 2019)

Key:
[1] = tested on: O=[N+]([O-])c1ccc(O[C@@H]2OC[C@@H](O)[C@H](O)[C@H]2O)cc1; test: purified protein; assay type: biochemical, Aspergillus nidulans; conditions: 0.05 M ammonium acetate pH 5.0, 60 °C, 1–20 mM substrate
[2] = CD thermal melt, 20-100 °C; conditions: glycan lost; control: BxlBwt
[3] = ρNP-X activity of intracellular extract; conditions: glycan lost; control: BxlBwt
[4] = far-UV CD secondary structure; conditions: glycan lost; control: BxlBwt
[5] = Michaelis-Menten kinetics, purified enzyme, pH 5.0, 60 °C; conditions: glycan lost; control: BxlBwt
[6] = western blot of crude extracellular extract, polyclonal anti-BxlB; conditions: glycan lost; control: BxlBwt
purified protein = substrate: O=[N+]([O-])c1ccc(O[C@@H]2OC[C@@H](O)[C@H](O)[C@H]2O)cc1; test: purified protein; assay type: biochemical, Aspergillus nidulans; conditions: 0.05 M ammonium acetate pH 5.0, 60 °C, 1–20 mM substrate; remark: listed apart in the source

BxlB^wt (GH3 β-xylosidase BxlB) (Aspergillus nidulans FGSC A4; N340Q/N408Q/N419Q/N458Q/N621Q/N760Q)
Km [1]: 2530 ± 230 µM
Vmax [1]: 9.49 µmol/min/mg
kcat [1]: 13 s⁻¹
kcat/Km [1]: 5130 M⁻¹ s⁻¹

B1: BxlB (GH3 β-xylosidase): BxlBN1;5;7 (protein)
parent chain: MAVFKSWNLALLSSLFIPALCQSNYPDCTTGPLSELPICDTSLSPLERAKSLVSALTLEEKINNTGHEAAGSSRLGLPAYNWWNEALHGVAEKHGVSFEESGDFSYATSFPAPIVLGAAFNDALIRRVAEIISTEARAFSNSDHAGIDYWTPNVNPFKDPRWGRGQETPGEDPLHCSRYVKEFVGGLQGDDPEKPKVVATCKHLAAYDLEEWGGVSRFEFDAKVSAVDLLEYYLPPFKTCAVDASVGAFMCSYNALNGVPACADRYLLQTVLREHWGWEGPGHWVTGDCGAVERIQTYHHYVESGPEAAAAALNAGVDLDCGTWLPSYLGEAERQGLISNETLDAALTRLYTSLVQLGYFDPAEGQPLRSLGWDDVATSEAEELAKTVAIQGTVLLKNIDWTLPLKANGTLALIGPFINFTTELQSNYAGPAKHIPTMIEAAERLGYNVLTAPGTEVNSTSTDGFDDALAIAAEADALIFFGGIDNTVEEESLDRTRIDWPGNQEELILELAELGRPLTVVQFGGGQVDDSALLASAGVGAIVWAGYPSQAGGAGVFDVLTGKAAPAGRLPITQYPKSYVDEVPMTDMNLQPGTDNPGRTYRWYEDAVLPFGFGLHYTTFNVSWAKKAFGPYDAATLARGKNPSSNIVDTFSLAVTNTGDVASDYVALVFASAPELGAQPAPIKTLVGYSRASLIKPGETRKVDVEVTVAPLTRATEDGRVVLYPGEYTLLVDVNDEYPTAKFEIKGDVQVLEKFPLSGNDSD
stability_or_folding, Tm [2]: decreases, 61.6 vs 63.8
enzymatic_activity, fold_change [3]: increases
structure_or_conformation [4]: no change
enzymatic_activity, kcat_Km [5]: increases, 9.51 vs 6.34, 50% higher catalytic efficiency as compared to the wild type
expression_or_secretion [6]: decreases

B2: BxlB^wt (GH3 β-xylosidase BxlB) (Aspergillus nidulans FGSC A4) (protein)
chain: NYPDCTTGPLSELPICDTSLSPLERAKSLVSALTLEEKINNTGHEAAGSSRLGLPAYNWWNEALHGVAEKHGVSFEESGDFSYATSFPAPIVLGAAFNDALIRRVAEIISTEARAFSNSDHAGIDYWTPNVNPFKDPRWGRGQETPGEDPLHCSRYVKEFVGGLQGDDPEKPKVVATCKHLAAYDLEEWGGVSRFEFDAKVSAVDLLEYYLPPFKTCAVDASVGAFMCSYNALNGVPACADRYLLQTVLREHWGWEGPGHWVTGDCGAVERIQTYHHYVESGPEAAAAALNAGVDLDCGTWLPSYLGEAERQGLISNETLDAALTRLYTSLVQLGYFDPAEGQPLRSLGWDDVATSEAEELAKTVAIQGTVLLKNIDWTLPLKANGTLALIGPFINFTTELQSNYAGPAKHIPTMIEAAERLGYNVLTAPGTEVNSTSTDGFDDALAIAAEADALIFFGGIDNTVEEESLDRTRIDWPGNQEELILELAELGRPLTVVQFGGGQVDDSALLASAGVGAIVWAGYPSQAGGAGVFDVLTGKAAPAGRLPITQYPKSYVDEVPMTDMNLQPGTDNPGRTYRWYEDAVLPFGFGLHYTTFNVSWAKKAFGPYDAATLARGKNPSSNIVDTFSLAVTNTGDVASDYVALVFASAPELGAQPAPIKTLVGYSRASLIKPGETRKVDVEVTVAPLTRATEDGRVVLYPGEYTLLVDVNDEYPTAKFEIKGDVQVLEKFPLSGNDSD
notes: homologous secreted expression in A. nidulans A773 (pEXPYR, glaA promoter, A. niger glucoamylase signal peptide); purified by DEAE and Superdex 200; N-glycosylated at N63, N340, N408, N419, N458, N621, N760
Km (purified protein): 2060 ± 130 µM
Vmax (purified protein): 9.55 µmol/min/mg
kcat (purified protein): 13.1 s⁻¹
kcat/Km (purified protein): 6340 M⁻¹ s⁻¹
